In patent EP4349860A1 (Fundació Institut Hospital Del Mar D'Investigacions …, dated 2024):
Where two headings read alike, the source gives them in different places.

Assays:
[1] = biological target: T1, SARS-CoV-2 spike protein, Omicron BA.2 variant, on pseudovirus (SARS-CoV-2 (Omicron BA.2 variant)); experiment: cell-based or functional assay
[2] = biological target: T2, RBD of the SARS-CoV-2 spike protein, Delta (B.1.617.2) variant (SARS-CoV-2 (Delta variant), UniProt P0DTC2 319-541); experiment: ELISA, plate coated with RBD at 2 µg/ml, anti-human IgG-HRP detection
T2 construct: domain: RBD

[3] = biological target: T3, RBD of the SARS-CoV-2 spike protein, Beta (B.1.351) variant (SARS-CoV-2 (Beta variant), UniProt P0DTC2 319-541); experiment: as above
T3 construct: domain: RBD

[4] = biological target: T4, RBD of the SARS-CoV-2 spike protein, Gamma (P.1) variant (SARS-CoV-2 (Gamma variant), UniProt P0DTC2 319-541); experiment: as above
T4 construct: domain: RBD

[5] = biological target: T1, SARS-CoV-2 spike protein, Omicron BA.2 …; experiment: cell-based or functional assay; remark: listed apart in the source
[6] = biological target: T5, SARS-CoV-2 spike protein, Gamma (P.1) variant, on pseudovirus (SARS-CoV-2 (Gamma variant)); experiment: cell-based or functional assay
[7] = biological target: T6, SARS-CoV-2 spike protein, Delta (B.1.617.2) variant, on pseudovirus (SARS-CoV-2 (Delta variant)); experiment: cell-based or functional assay
[8] = biological target: SARS-CoV-2 spike protein, Omicron BA.4/BA.5 variants, on pseudovirus (SARS-CoV-2 (Omicron BA.4/BA.5 variants)); experiment: cell-based or functional assay
[9] = biological target: T7, SARS-CoV-2 spike protein, Beta (B.1.351) variant, on pseudovirus (SARS-CoV-2 (Beta variant)); experiment: cell-based or functional assay
[10] = biological target: T8, SARS-CoV-2 spike protein, Alpha (B.1.1.7) variant, on pseudovirus (SARS-CoV-2 (Alpha variant)); experiment: cell-based or functional assay
[11] = biological target: T5, SARS-CoV-2 spike protein, Gamma (P.1) …; experiment: cell-based or functional assay; remark: listed apart in the source
[12] = biological target: T6, SARS-CoV-2 spike protein, Delta …; experiment: cell-based or functional assay; remark: listed apart in the source
[13] = biological target: T7, SARS-CoV-2 spike protein, Beta …; experiment: cell-based or functional assay; remark: listed apart in the source
[14] = biological target: T8, SARS-CoV-2 spike protein, Alpha …; experiment: cell-based or functional assay; remark: listed apart in the source
[15] = biological target: SARS-CoV-2 spike protein, Mu (B.1.621) variant, on pseudovirus (SARS-CoV-2 (Mu variant)); experiment: cell-based or functional assay

B1: mAb17T2 (antibody, V domains shown)
VH: QVQLVQSGPEVKKPGTSVKVSCKAPVFTFSISAVQWVRQARGQRLEWIGWIVVGSGNTNYAQNFQERVTITTDMSTGTVYMELSGLRSEDTAMYYCAAPYCNRTTCYDGFDLWGQGTMVTVSS
VL: EIVLTQSPGTLSLSPGERATLSCRASQSISSNYLAWYQQKPGQAPRLLIYGASSRATGIPDRFSGSGSGTDFTLSINRLEPEDFAMYYCQHYGGLSRWTFGQGTKVEIKR
- fold neutralizing activity compared to S2E12 [1]: 13.5 fold
- fold neutralizing activity compared to S309 [1]: 41 fold
- EC50 [2]: 3.38 ng/mL
- EC50 [3]: 3.76 ng/mL
- EC50 [4]: 3.08 ng/mL
- IC50 (µg/ml), pseudotyped virus neutralization [5]: 0.0101 µg/mL
- IC50 (µg/ml), pseudotyped virus neutralization [6]: 0.0083 µg/mL
- IC50 (µg/ml), pseudotyped virus neutralization [7]: 0.0096 µg/mL
- IC50 (µg/ml), pseudotyped virus neutralization [8]: 0.00203 µg/mL
- IC50 (µg/ml), pseudotyped virus neutralization [9]: 0.0027 µg/mL
- IC50 (µg/ml), pseudotyped virus neutralization [10]: 0.0069 µg/mL
- IC50 (µg/ml), pseudotyped virus neutralization [11]: 0.0126 µg/mL
- IC80 (µg/ml), pseudotyped virus neutralization [11]: 0.0218 µg/mL
- IC90 (µg/ml), pseudotyped virus neutralization [11]: 0.0302 µg/mL
- IC50 (µg/ml), pseudotyped virus neutralization [12]: 0.0105 µg/mL
- IC80 (µg/ml), pseudotyped virus neutralization [12]: 0.0165 µg/mL
- IC90 (µg/ml), pseudotyped virus neutralization [12]: 0.0215 µg/mL
- IC50 (µg/ml), pseudotyped virus neutralization [13]: 0.0022 µg/mL
- IC80 (µg/ml), pseudotyped virus neutralization [13]: 0.00481 µg/mL
- IC90 (µg/ml), pseudotyped virus neutralization [13]: 0.0076 µg/mL
- IC50 (µg/ml), pseudotyped virus neutralization [14]: 0.00666 µg/mL
- IC80 (µg/ml), pseudotyped virus neutralization [14]: 0.014 µg/mL
- IC90 (µg/ml), pseudotyped virus neutralization [14]: 0.0216 µg/mL
- IC50 (µg/ml), pseudotyped virus neutralization [15]: 0.00907 µg/mL
- IC80 (µg/ml), pseudotyped virus neutralization [15]: 0.014 µg/mL
- IC90 (µg/ml), pseudotyped virus neutralization [15]: 0.0181 µg/mL
